Test results taken from patent publication CN115925884A.

Molecular target: EBV gB重组蛋白 (recombinant EB virus gB protein with C-terminal 6xHis tag) (EB病毒 (Epstein-Barr virus)) (UniProt P0C762)
Assay: BLI, biotinylated gB on SA biosensor, control antibody in solution

Kd: 302 pM
Substance: 对照抗体AMMO5 (anti-EBV gB recombinant antibody, clone AMMO5)
